Key:
human IL-36R [1] = molecular target: T1, human IL-36R (human, UniProt Q9HB29 20-575); assay: cell-based or functional assay
T1 sequence (looked up): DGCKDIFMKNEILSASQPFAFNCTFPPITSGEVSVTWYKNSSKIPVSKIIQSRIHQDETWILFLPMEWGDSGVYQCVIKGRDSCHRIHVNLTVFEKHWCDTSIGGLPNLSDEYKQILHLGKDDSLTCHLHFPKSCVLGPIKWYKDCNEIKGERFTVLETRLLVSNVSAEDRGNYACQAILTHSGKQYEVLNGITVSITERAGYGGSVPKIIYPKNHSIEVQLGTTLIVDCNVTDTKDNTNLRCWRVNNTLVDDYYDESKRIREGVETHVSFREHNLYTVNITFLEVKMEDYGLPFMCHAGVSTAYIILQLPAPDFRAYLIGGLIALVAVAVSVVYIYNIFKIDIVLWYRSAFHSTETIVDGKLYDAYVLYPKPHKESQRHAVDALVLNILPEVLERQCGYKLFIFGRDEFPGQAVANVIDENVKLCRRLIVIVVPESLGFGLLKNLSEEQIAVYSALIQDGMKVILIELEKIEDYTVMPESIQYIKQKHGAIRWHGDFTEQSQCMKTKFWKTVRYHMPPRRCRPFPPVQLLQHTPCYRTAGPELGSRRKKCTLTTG

human IL-36R [2] = molecular target: T1, human IL-36R; assay: cell-based or functional assay; remark: listed apart in the source
human IL-36R [3] = molecular target: T1, human IL-36R; assay: cell-based or functional assay; remark: listed apart in the source
human IL-36R [4] = molecular target: T1, human IL-36R; assay: cell-based or functional assay; remark: listed apart in the source
[5] = molecular target: T2, His-tagged human IL-1 Rrp2/IL-1R6 protein (human, UniProt Q9HB29 20-335, limits assumed); assay: SPR Biacore 8K, His-tagged antigen captured by anti-His antibody, antibody as analyte, 1:1 model
T2 construct: Bought protein; also called His-tagged human IL-1 Rrp2/IL-IR6 protein; not shown: His tag
T2 sequence (looked up): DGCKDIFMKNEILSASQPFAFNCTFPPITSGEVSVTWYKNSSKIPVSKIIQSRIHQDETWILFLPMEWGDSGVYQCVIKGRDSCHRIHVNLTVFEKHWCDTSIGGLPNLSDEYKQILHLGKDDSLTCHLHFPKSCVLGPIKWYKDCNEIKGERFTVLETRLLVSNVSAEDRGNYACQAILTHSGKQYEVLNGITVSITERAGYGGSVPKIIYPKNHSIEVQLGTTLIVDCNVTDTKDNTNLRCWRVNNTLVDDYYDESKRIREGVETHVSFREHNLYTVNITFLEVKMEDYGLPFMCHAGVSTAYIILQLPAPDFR

human IL-36R [6] = molecular target: T1, human IL-36R; assay: cell-based or functional assay; remark: listed apart in the source
Human IL-17A = molecular target: T3, Human IL-17A (human, UniProt Q16552 24-155); assay: cell-based or functional assay
T3 sequence (looked up): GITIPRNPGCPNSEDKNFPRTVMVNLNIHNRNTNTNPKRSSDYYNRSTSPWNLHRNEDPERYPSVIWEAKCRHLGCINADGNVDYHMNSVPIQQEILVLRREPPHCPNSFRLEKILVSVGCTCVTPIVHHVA

human IL-36R [7] = molecular target: T1, human IL-36R; assay: flow cytometry on CHO-K1-huIL-36R-5E10/2F10 cells
[8] = molecular target: T4, IL17A (analyte of Table 17) (Homo sapiens (Human), UniProt Q16552 24-155); assay: SPR Biacore 8K, antibody captured on anti-human chip, antigen as analyte, 1:1 model
T4 sequence: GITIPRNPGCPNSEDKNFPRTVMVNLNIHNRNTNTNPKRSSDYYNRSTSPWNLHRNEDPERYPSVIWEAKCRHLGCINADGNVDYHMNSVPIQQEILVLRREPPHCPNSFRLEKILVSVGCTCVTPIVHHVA

B1: anti-IL-36R chimeric antibody 900497 (antibody, V domains shown)
VH: QVQLQQTGSVLVRPGTSVKLSCKASGYTFTSSWMHWAKQRPGQGLEWIGEIHPNSAKTNYNEKFKGKATLTVDTFSSTAYVDLSSLASEDSAVYYCARVDYGKPWFAYWGQGTLVTVSA
VL: QIVLTQSPTIMSASPGERVTMTCSASSSVSSSYLHWYQQKPGSSPKLWIYSTSNLASGVPARFSGSGSGTSYSLTINSMEAEDAATYYCQQFQSSPLTFGAGTKLGLK
notes: Human-mouse chimera: human IgG1 heavy constant region with L234A and L235A (Eu numbering), human kappa light constant region
**Q.** How did the “IC50 of GM-CSF release, NCI/ADR-RES cells stimulated with IL-36α” value (human IL-36R [1]) turn out when B1 was run?
**A.** The value was 0.0328 µg/mL.

**Q.** What about the “IC50 of GM-CSF release, NCI/ADR-RES cells stimulated with IL-36β” value (human IL-36R [1]) of the same binder?
**A.** The value was 0.0224 µg/mL.

**Q.** And the “IC50 of GM-CSF release, NCI/ADR-RES cells stimulated with IL-36γ” value (human IL-36R [1])?
**A.** Its value is 0.0288 µg/mL.

**Q.** And the “IC50 of IL-6 release, NCI/ADR-RES cells stimulated with IL-36α” value (human IL-36R [1])?
**A.** The value was 0.0332 µg/mL.

**Q.** And the “IC50 of IL-6 release, NCI/ADR-RES cells stimulated with IL-36β” value (human IL-36R [1])?
**A.** The value was 0.0204 µg/mL.

**Q.** What about the “IC50 of IL-6 release, NCI/ADR-RES cells stimulated with IL-36γ” value (human IL-36R [1]) of the same binder?
**A.** Its value is 0.0198 µg/mL.

**Q.** And the “IC50 of IL-8 release, NCI/ADR-RES cells stimulated with IL-36α” value (human IL-36R [1])?
**A.** The value was 0.0439 µg/mL.

**Q.** And the “IC50 of IL-8 release, NCI/ADR-RES cells stimulated with IL-36β” value (human IL-36R [1])?
**A.** The value was 0.0292 µg/mL.

**Q.** What about the “IC50 of IL-8 release, NCI/ADR-RES cells stimulated with IL-36γ” value (human IL-36R [1]) of the same binder?
**A.** Its value is 0.0284 µg/mL.

**Q.** And the “IC50 of pNF-κB, NCI/ADR-RES cells stimulated with IL-36β” value (human IL-36R [1])?
**A.** Its value is 115 ng/mL.

**Q.** And the “HuIL-6 detected in HIF under IL-36α stimulation IC50” value (human IL-36R [2])?
**A.** Its value is 0.146 µg/mL.

**Q.** And the “HuIL-6 detected in HIF under IL-36β stimulation IC50” value (human IL-36R [3])?
**A.** The value was 0.0837 µg/mL.

**Q.** And the “pNFκB detected in HIF under IL-36β stimulation IC50” value (human IL-36R [4])?
**A.** The value was 0.1 µg/mL.

**Q.** What about the Kd [5] of the same binder?
**A.** The Kd was 25.4 pM.

**Q.** And the koff [5]?
**A.** Its koff is 1.68e-05 s⁻¹.

**Q.** And the kon [5]?
**A.** The kon was 660000 M⁻¹ s⁻¹.

B2: IL17A-IL36R bispecific antibody 700007 (bispecific antibody)
heavy (part 1 of 2): QVQLVQSGSELKKPGASVKVSCKASEYIFTNYGMNWVKQAPGQGFEWMGWIDTNTGEPTYAQGFTGRFVFSLDTSVSTAYLQISSLKAEDTATYYCANYGWGYFDYWGQGTTVTVSS
heavy (part 2 of 2): GGGGSGGGGSGGGGSGGGGSQIVLTQSPGTLSLSPGERATLSCRASSSVSSSYLHWYQQKPGQAPRLWIYSTSSRATGIPDRFSGSGSGTDFTLTISRLEPEDFATYYCQQFQSSPLTFGQGTKLEIKGGGGSGGGGSGGGGSGGGGSQVQLVQSGAEVKKPGASVKVSCKASGYTFTSSWMHWAKQAPGQGLEWIGEIHPNSAKTNYNQKFQGRVTMTRDTSISTAYMELSRLRSDDTAVYYCARVDYGKPWFAYWGQGTLVTVSS
light: DVVMTQTPPSLPVNPGEPASISCRSSQSLVHSNGYTYLHWYLQKPGQSPQLLIYKVSNHLSGVPDRFSGSGSGTDFTLKISWVEAEDVGVYFCSQSTHVPYTFGGGTKLEIKRTVAAPSVFIFPPSDEQLKSGTASVVCLLNNFYPREAKVQWKVDNALQSGNSQESVTEQDSKDSTYSLSSTLTLSKADYEKHKVYACEVTHQGLSSPVTKSFNRGEC
notes: not shown: heavy constant region CH1-CH2-CH3
**Q.** B2 was tested. Which “EC50 of inhibition of IL-6 content, NCI/ADR-RES cells stimulated with IL-36β” value (human IL-36R [6]) did it give?
**A.** Its value is 480 pM.

**Q.** What about the “EC50 of inhibition of IL-6 secretion, HT-1080 cells stimulated with h IL17-A and h TNF-α” value (Human IL-17A) of the same binder?
**A.** Its value is 76.6 pM.

**Q.** And the EC50 (human IL-36R [7])?
**A.** Its EC50 is 693 pM.

**Q.** What about the Kd [8] of the same binder?
**A.** The Kd was 6.13 pM.

**Q.** What about the koff [8] of the same binder?
**A.** The koff was 4.33e-05 s⁻¹.

**Q.** And the kon [8]?
**A.** The kon was 7.06e+06 M⁻¹ s⁻¹.

B3: IL17A-IL36R bispecific antibody 700009 (bispecific antibody)
heavy (part 1 of 2): QVQLVQSGSELKKPGASVKVSCKASEYIFTNYGMNWVKQAPGQGFEWMGWIDTNTGEPTYAQGFTGRFVFSLDTSVSTAYLQISSLKAEDTATYYCANYGWGYFDYWGQGTTVTVSS
heavy (part 2 of 2): GGGGSGGGGSGGGGSGGGGSQIVLTQSPGTLSLSPGERATLSCRASSSVSSSYLHWYQQKPGQAPRLWIYSTSSRATGIPDRFSGSGSGTDFTLTISRLEPEDFATYYCQQFQSSPLTFGQGTKLEIKGGGGSGGGGSGGGGSGGGGSGGGGSQVQLVQSGAEVKKPGASVKVSCKASGYTFTSSWMHWAKQAPGQGLEWIGEIHPNSAKTNYNQKFQGRVTMTRDTSISTAYMELSRLRSDDTAVYYCARVDYGKPWFAYWGQGTLVTVSS
light: DVVMTQTPPSLPVNPGEPASISCRSSQSLVHSNGYTYLHWYLQKPGQSPQLLIYKVSNHLSGVPDRFSGSGSGTDFTLKISWVEAEDVGVYFCSQSTHVPYTFGGGTKLEIKRTVAAPSVFIFPPSDEQLKSGTASVVCLLNNFYPREAKVQWKVDNALQSGNSQESVTEQDSKDSTYSLSSTLTLSKADYEKHKVYACEVTHQGLSSPVTKSFNRGEC
notes: as for B2
**Q.** Which results are given for B3?
**A.** EC50 of inhibition of IL-6 content, NCI/ADR-RES cells stimulated with IL-36β (human IL-36R [6]): 650 pM; EC50 of inhibition of IL-6 secretion, HT-1080 cells stimulated with h IL17-A and h TNF-α (Human IL-17A): 100 pM; EC50 (human IL-36R [7]): 799 pM; Kd [8]: 7.96 pM; koff [8]: 5.71e-05 s⁻¹; kon [8]: 7.17e+06 M⁻¹ s⁻¹
